Experimental data as given in patent US7449443B2, “Method for stabilization of proteins using non-natural amino acids” (California Institute of Technology, priority 2000, dated 2008).

Tests used:
[1] = tested on: E. coli leucine auxotroph SG13009; experiment: Analog incorporation assay: A1 expression in leucine auxotroph; type: cell-based; conditions: leucine-free medium supplemented with analog, western blot
Experimental: Analog Incorporation Assay. The expression vector pQE-A1, which contains the coding sequences for the protein A1 (FIG. 4A) was obtained from US Army Natick RD&E Center (Natick, Mass.). The E. coli leucine auxotroph SG13009 was obtained from Qiagen (Chatsworth, Calif.) and transformed with plasmids pREP4 and pQE-A1, to yield the expression host […] medium (30 ml) supplemented with 1 mM MgSO4, 1 mM CaCl2, […], 1 mg/L thiamin and the antibiotics ampicillin (200 mg/L) and kanamycin (25 mg/L) were inoculated with 1 ml of an overnight 2×YT culture of the expression strain. […] The supernatant was removed and the cell pellets were washed with 0.9% NaCl and sedimented (5000 g, 10 min, 4° C.). The washing and sedimentation steps were repeated three times to remove residual leucine. The washed cells were then resuspended in 31 ml of supplemented […] medium, without leucine. Aliquots (5 ml) were added to test tubes containing no leucine (negative control), L-leucine (20 mg/L, positive control), DL-trifluoroleucine (40 mg/L) or DL-hexafluoroleucine (40 mg/L). The cultures were grown for 10 min at 37° C., and isopropyl-β-D-thiogalactopyranoside (IPTG) was added to a final concentration of 1 mM. […] The whole cell lysate was analyzed by 15% SDS-PAGE. The proteins were detected by western blotting with an antibody specific for the N-terminal His-Tag of A1 (FIG. 4B).

LeuRS = LeuRS (Escherichia coli, UniProt P07813); experiment: Level of Tfl incorporation versus leucine concentration in expression medium; type: cell-based, E. coli; conditions: estimated from 50% substitution at leucine 8 mg/L (50 μM) and Tfl (DL) 100 mg/L (540 μM)
Sequence of LeuRS (P07813 whole entry): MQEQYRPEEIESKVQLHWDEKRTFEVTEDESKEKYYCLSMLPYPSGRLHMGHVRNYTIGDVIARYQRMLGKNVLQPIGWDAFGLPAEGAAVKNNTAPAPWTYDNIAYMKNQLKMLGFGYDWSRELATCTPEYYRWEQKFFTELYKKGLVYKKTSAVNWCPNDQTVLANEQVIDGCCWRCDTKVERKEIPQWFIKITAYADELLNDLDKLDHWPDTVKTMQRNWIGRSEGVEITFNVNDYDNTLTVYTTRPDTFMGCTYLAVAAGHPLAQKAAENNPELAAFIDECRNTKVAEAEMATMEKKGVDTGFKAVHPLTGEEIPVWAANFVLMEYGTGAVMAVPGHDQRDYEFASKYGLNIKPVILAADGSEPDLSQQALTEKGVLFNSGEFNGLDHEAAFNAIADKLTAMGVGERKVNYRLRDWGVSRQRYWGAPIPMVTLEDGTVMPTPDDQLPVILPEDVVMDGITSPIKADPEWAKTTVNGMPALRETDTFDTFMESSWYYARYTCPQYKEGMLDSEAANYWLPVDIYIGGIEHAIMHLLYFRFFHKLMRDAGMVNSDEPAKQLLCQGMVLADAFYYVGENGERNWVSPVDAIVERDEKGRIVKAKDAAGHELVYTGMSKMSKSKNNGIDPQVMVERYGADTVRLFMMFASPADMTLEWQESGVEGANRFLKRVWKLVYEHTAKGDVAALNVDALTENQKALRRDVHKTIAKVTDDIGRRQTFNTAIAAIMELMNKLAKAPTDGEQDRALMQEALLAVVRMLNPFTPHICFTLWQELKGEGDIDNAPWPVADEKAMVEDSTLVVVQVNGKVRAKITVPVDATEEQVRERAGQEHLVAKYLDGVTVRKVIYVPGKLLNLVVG
Experimental: Normal leucine concentration in expression medium is 40 mg/L. The extent of incorporation is determined by amino acid analysis.
Protein Expression and Purification. M9 medium (1 L) supplemented as described above was inoculated with 30 ml of fresh overnight culture of the expression strain. After the culture had grown to OD600 of 1.0, it was subjected to centrifugation and washing procedures as described above. The cell pellet was suspended in 1 L M9 medium supplemented with trifluoroleucine (100 mg/L) and leucine in appropriate concentrations. IPTG was added after 10 min to induce protein expression. The expression of protein was monitored by removing an aliquot (1 ml) of the culture every hour and analyzing by SDS-PAGE. Cells were collected after 3 hr by centrifugation (5000 g, 15 min, 4° C.). The pellets were resuspended in 20 ml of buffer A and stored at −80° C. overnight. […] Extent of trifluoroleucine incorporation was determined by amino acid analysis (DNA/Protein Analysis Facility, Cornell University) and MALDI mass spectrometry (Protein/Peptide Micro Analytical Laboratory, Caltech).
The degree of substitution is determined through the diminution of leucine mole fractions from amino acid analysis (AAA). […]

[2] = CD thermal unfolding of GCN4-p1 coiled-coil peptides; type: physicochemical
Experimental: (§1) Circular Dichroism (CD) Analysis. CD spectra were recorded on an Aviv 62DS spectropolarimeter (Lakewood, N.J.) in PBS buffer, pH 7.4. All peptide concentrations were determined by amino acid analysis of a stock solution (5 mg/ml). Experiments were performed in a rectangular cell with pathlength of 1 cm for low concentration samples and pathlength of 1 mm for high concentration samples. Spectra were scanned from 250 nm to 200 nm with data taken every 1 nm. The temperature of the solution was maintained by a thermostatically controlled cuvette holder (HP model 89101A). Temperature scans were performed from 0° C. to 100° C. in 1° C. steps. Three scans were performed on a single sample and averaged. Each data point was collected after 30 seconds of thermal equilibration at the desired temperature. Urea titration scans were performed manually starting with the 8 M concentrated sample followed by serial dilution to the desired urea concentration. At each concentration, the sample was allowed to equilibrate for 5 min before recording the CD signal.
(§2) The analysis of CD thermal melting data was performed according to a previously described procedure using a two-state model (Schneider, J. P.; Lear, J. D.; DeGrado, W. F. J. Am. Chem. Soc. 1997, 119, 5742-5743). Temperature-dependent ellipticity data for each protein at different concentrations were fitted globally using a non-linear least-squares fitting procedure supplied with the Origin 6.0 software. For wild-type A1, the concentrations used for curve fitting were 10 and 100 μM, while 2 and 100 μm were used to fit data for the 92% fluorinated A1. The thermodynamic quantities Tm, ΔHm, ΔCp and Kd were parameters of the fitting procedure and are reported in the 1 M standard state. The free energy of folding at any temperature is given by equation 1. ΔG°=ΔHm(1−T/Tm)−ΔCp((Tm−T)+T1n(T/Tm) (1)
The thermal stabilities of the coiled-coil dimers of Leu-GCN4-p1 and Tfl-GCN4-p1 were examined by CD spectroscopy (FIG. 2B). A significant increase in the thermal stability of Tfl-GCN4-p1 as compared to Leu-GCN4-p1 is reflected in an elevation of the thermal denaturation temperature from 48° C. to 61° C. The 13° C. increase in Tm is remarkable in view of the fact that no increase in the thermal stability of GCN4-p1 has been reported based solely on substitution of the leucine residues at the d-positions. […] As expected for a monomer-dimer equilibrium, the denaturation curves depend on the peptide concentrations, and their midpoints shift to higher temperature as the concentrations of peptides are increased (FIG. 2C). The thermodynamic changes associated with the transition (folded dimer to unfolded monomers) is calculated from the melting curves by fitting the data to a monomer-dimer equilibrium (J. P. Schneider, J. D. Lear and W. F. DeGrado, J. Am. Chem. Soc. 119, 5742, 1997). Global analysis of the thermal unfolding curves at two different concentrations, approximately 85 μM and 3 μM, gave a calculated ΔH° of 60.2 kcal mol^−1, Tm of 385.4 K and ΔCp of 530 cal mol^−1 K^−1 for Tfl-GCN4-p1 (1 M standard state); the corresponding values for Leu-GCN4-p1 are 70.3 kcal mol^−1, 365.6 K and 740 cal mol^−1 K^−1 respectively.

[3] = biological target: oligonucleotides containing the AP-1 binding site; experiment: Mobility shift (gel-retardation) assay, AP-1; conditions: densitometry analysis of mobility shift assay
Source text: (§3) (FIG. 3B) Leu-bZip binds to both the AP-1 and CREB binding sites with equal affinities even though the spacing between the half-sites of DNA is different.

[4] = biological target: oligonucleotides containing the CREB binding site; experiment: Mobility shift (gel-retardation) assay, CREB; conditions: densitometry analysis of mobility shift assay
Source text: as §3

[5] = tested on: nonspecific sequence (NON) oligonucleotides; experiment: Mobility shift (gel-retardation) assay, nonspecific sequence; type: binding
Source text: as §3

[6] = CD thermal denaturation of A1 proteins with two-state global fitting; type: physicochemical; conditions: for ΔCp (1M) heat capacity change upon folding: 1M standard state, uncertainty 120; for ΔHm (1M) enthalpy of folding: at midpoint temperature, extrapolated to 1M standard state, uncertainty 4.8; for Tm (1M): extrapolated to 1M standard state by non-linear least square fit, uncertainty ± 1.5° C.; for Tm (10 μM): midpoint of thermal denaturation curve at 10 μM protein
Experimental: Insert: The thermal melting temperature (Tm) plotted as a function of level of incorporation. Tm is defined as the temperature at which 50% of the peptide has unfolded. The stability of the protein increases with increasing level of 2trifluoroleucine substitution. (10 μM protein concentration, PBS buffer, pH 7.4).
as §1, §2
Global thermodynamic fitting was used to obtain the thermodynamic quantities associated with the monomer to dimer transition for A1-WT and FA1-92. The intermediate level fluorinated proteins, FA1-17 and FA1-29 were not fitted using the procedure because the heterogeneity of the samples would not be described accurately by the two-state model. The presence of a heterogeneous population can be seen from the broadening of the thermal melting curves at substitution rates of 17 and 29%. However, even for the nearly completely substituted FA1-92, the protein sample was still a mixed population because Tfl was used as an equal molar mixture of (2S, 4S) and (2S, 4R) diastereomers. The free energy of unfolding for FA1-92 was 2.4 kcal/mol more favorable than A1-WT at 37° C., which corresponded to 0.4 kcal/mol of stabilizing energy per Tfl molecule involved at the helix interface. Considering the large number of leucines packed in the hydrophobic core of proteins, the additive stabilizing effects of Tfl can be quite substantial.

[7] = Urea titration of A1 proteins by CD; type: physicochemical; conditions: 0° C., 10 μM protein, PBS, pH 7.4
Experimental: The fraction of unfolded protein is plotted against increasing urea concentration. Insert: The urea concentration at which 50% of protein is denatured is plotted against the extent of fluorination. (10 μM protein concentration, PBS buffer, pH 7.4).
as §1

[8] = global analysis of thermal unfolding curves, 1 M standard state

## N[C@@H](CC(C(F)(F)F)C(F)(F)F)C(=O)O [Hfl, 5,5,5,5′,5′,5′-hexafluoroleucine]
[1]
  ability to support protein synthesis (A1 expression): does not support measurable protein synthesis

## CC(C[C@H](N)C(=O)O)C(F)(F)F (stereo partly shown) [Tfl, 5,5,5-trifluoroleucine]
[1]
  ability to support protein synthesis (A1 expression): support protein synthesis
LeuRS
  specificity for LeuRS compared to leucine: reduced five times

## Leu-GCN4-p1: wild type form of the leucine zipper peptide GCN4-p1, not acylated at the N-terminus [reference compound]
[2]; CD spectroscopy, coiled-coil dimers
  thermal denaturation temperature (Tm): 48 °C
[2]; global analysis of thermal unfolding curves at approximately 85 μM and 3 μM, 1 M standard state
  ΔH°: 294 kJ/mol
[2]; [8]
  Tm: 92.5 °C
  ΔCp: 740 cal mol^−1 K^−1

## Leu-bZip: wild-type 56 amino acid segment (residues 226-281) of the eukaryotic transcription factor GCN4
[3]
  Kd: 12.8 ± 1 nM
[4]
  Kd: 4.8 ± 0.5 nM
[5]
  recognition of nonspecific (NON) sequences: lack of protein-bound DNA

B1: FA1-92: trifluoroleucine-substituted A1 protein, 92% replacement of leucine by amino acid analysis (protein)
chain: MRGSHHHHHHGSMASGDLENEYAQLEREVRSLEDEAAELEQKVSRLKNEIEDLAEIGDLNNTSGIRRPAAKLN
[6]; 10 μM protein, PBS, pH 7.4
  Tm elevation compared to A1-WT: 13 °C
[6]
  ΔCp (1M) heat capacity change upon folding: −272 cal/mol-K
  ΔHm (1M) enthalpy of folding: -322 kJ/mol
  Tm (1M): 116 °C
[6]; at 37° C.
  free energy of unfolding more favorable than A1-WT: 10 kJ/mol
  stabilizing energy per Tfl molecule involved at the helix interface: 1.7 kJ/mol
[6]; PBS, pH 7.4
  Tm (10 μM): 67 °C
[6]; thermal and chemical (urea) unfolding studies
  resistance to thermal and chemical denaturation: highly resistant
[7]
  Curea, 50% (Cm), midpoint urea denaturation concentration: 7 M

B2: A1-WT: wild type leucine-zipper protein A1 with eight leucine residues, expressed in E. coli (protein)
chain: B1 chain
[6]
  ΔCp (1M) heat capacity change upon folding: −252 cal/mol-K
  ΔHm (1M) enthalpy of folding: -297 kJ/mol
  Tm (1M): 103 °C
[6]; PBS, pH 7.4
  Tm (10 μM): 54 °C
[7]
  Curea, 50% (Cm), midpoint urea denaturation concentration: 2.7 M
[7]; listed as Al-WT
  Curea, 50% (Cm), midpoint urea denaturation concentration: 2.8 M
